Assay results from IntAct's records for PubMed 29426014.

B1: Ubiquitin-protein ligase (Homo sapiens), Q05086-1 (parent)
chain: MEKLHQCYWKSGEPQSDDIEASRMKRAAAKHLIERYYHQLTEGCGNEACTNEFCASCPTFLRMDNNAAAIKALELYKINAKLCDPHPSKKGASSAYLENSKGAPNNSCSEIKMNKKGARIDFKDVTYLTEEKVYEILELCREREDYSPLIRVIGRVFSSAEALVQSFRKVKQHTKEELKSLQAKDEDKDEDEKEKAACSAAAMEEDSEASSSRIGDSSQGDNNLQKLGPDDVSVDIDAIRRVYTRLLSNEKIETAFLNALVYLSPNVECDLTYHNVYSRDPNYLNLFIIVMENRNLHSPEYLEMALPLFCKAMSKLPLAAQGKLIRLWSKYNADQIRRMMETFQQLITYKVISNEFNSRNLVNDDDAIVAASKCLKMVYYANVVGGEVDTNHNEEDDEEPIPESSELTLQELLGEERRNKKGPRVDPLETELGVKTLDCRKPLIPFEEFINEPLNEVLEMDKDYTFFKVETENKFSFMTCPFILNAVTKNLGLYYDNRIRMYSERRITVLYSLVQGQQLNPYLRLKVRRDHIIDDALVRLEMIAMENPADLKKQLYVEFEGEQGVDEGGVSKEFFQLVVEEIFNPDIGMFTYDESTKLFWFNPSSFETEGQFTLIGIVLGLAIYNNCILDVHFPMVVYRKLMGKKGTFRDLGDSHPVLYQSLKDLLEYEGNVEDDMMITFQISQTDLFGNPMMYDLKENGDKIPITNENRKEFVNLYSDYILNKSVEKQFKAFRRGFHMVTNESPLKYLFRPEEIELLICGSRNLDFQALEETTEYDGGYTRDSVLIREFWEIVHSFTDEQKRLFLQFTTGTDRAPVGGLGKLKMIIAKNGPDTERLPTSHTCFNVLLLPEYSSKEKLKERLLKAITYAKGFGML
partner: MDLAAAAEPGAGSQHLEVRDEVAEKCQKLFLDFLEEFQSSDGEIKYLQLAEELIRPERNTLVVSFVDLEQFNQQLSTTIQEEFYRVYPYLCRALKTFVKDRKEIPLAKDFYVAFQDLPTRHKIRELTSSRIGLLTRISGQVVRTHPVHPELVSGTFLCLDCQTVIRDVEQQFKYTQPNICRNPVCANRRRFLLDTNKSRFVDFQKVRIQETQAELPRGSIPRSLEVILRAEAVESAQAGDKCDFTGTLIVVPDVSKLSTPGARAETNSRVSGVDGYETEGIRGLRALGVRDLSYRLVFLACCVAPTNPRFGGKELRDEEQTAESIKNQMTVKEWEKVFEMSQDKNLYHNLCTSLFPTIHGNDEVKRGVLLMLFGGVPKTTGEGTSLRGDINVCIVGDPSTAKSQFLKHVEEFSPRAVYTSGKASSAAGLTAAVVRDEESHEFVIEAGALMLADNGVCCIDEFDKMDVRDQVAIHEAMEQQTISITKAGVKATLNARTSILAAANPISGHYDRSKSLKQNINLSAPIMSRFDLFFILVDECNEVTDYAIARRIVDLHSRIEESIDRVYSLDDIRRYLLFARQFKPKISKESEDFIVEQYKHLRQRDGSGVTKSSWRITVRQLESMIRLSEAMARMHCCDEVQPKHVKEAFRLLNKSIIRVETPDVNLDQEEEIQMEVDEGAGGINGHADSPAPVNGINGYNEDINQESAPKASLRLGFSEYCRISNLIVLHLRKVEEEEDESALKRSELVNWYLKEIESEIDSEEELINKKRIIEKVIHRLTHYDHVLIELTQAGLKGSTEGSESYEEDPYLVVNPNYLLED
B2: Ubiquitin-protein ligase (Homo sapiens), Q05086-2 (parent)
chain: MKRAAAKHLIERYYHQLTEGCGNEACTNEFCASCPTFLRMDNNAAAIKALELYKINAKLCDPHPSKKGASSAYLENSKGAPNNSCSEIKMNKKGARIDFKDVTYLTEEKVYEILELCREREDYSPLIRVIGRVFSSAEALVQSFRKVKQHTKEELKSLQAKDEDKDEDEKEKAACSAAAMEEDSEASSSRIGDSSQGDNNLQKLGPDDVSVDIDAIRRVYTRLLSNEKIETAFLNALVYLSPNVECDLTYHNVYSRDPNYLNLFIIVMENRNLHSPEYLEMALPLFCKAMSKLPLAAQGKLIRLWSKYNADQIRRMMETFQQLITYKVISNEFNSRNLVNDDDAIVAASKCLKMVYYANVVGGEVDTNHNEEDDEEPIPESSELTLQELLGEERRNKKGPRVDPLETELGVKTLDCRKPLIPFEEFINEPLNEVLEMDKDYTFFKVETENKFSFMTCPFILNAVTKNLGLYYDNRIRMYSERRITVLYSLVQGQQLNPYLRLKVRRDHIIDDALVRLEMIAMENPADLKKQLYVEFEGEQGVDEGGVSKEFFQLVVEEIFNPDIGMFTYDESTKLFWFNPSSFETEGQFTLIGIVLGLAIYNNCILDVHFPMVVYRKLMGKKGTFRDLGDSHPVLYQSLKDLLEYEGNVEDDMMITFQISQTDLFGNPMMYDLKENGDKIPITNENRKEFVNLYSDYILNKSVEKQFKAFRRGFHMVTNESPLKYLFRPEEIELLICGSRNLDFQALEETTEYDGGYTRDSVLIREFWEIVHSFTDEQKRLFLQFTTGTDRAPVGGLGKLKMIIAKNGPDTERLPTSHTCFNVLLLPEYSSKEKLKERLLKAITYAKGFGML
partner: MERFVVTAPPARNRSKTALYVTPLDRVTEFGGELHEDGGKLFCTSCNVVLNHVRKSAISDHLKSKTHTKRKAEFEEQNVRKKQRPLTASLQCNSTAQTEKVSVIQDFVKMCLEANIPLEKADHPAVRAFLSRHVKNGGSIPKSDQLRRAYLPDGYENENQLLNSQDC
B3: Ubiquitin-protein ligase (Homo sapiens), Q05086-1 (parent)
chain: B1 chain
B4: Ubiquitin-protein ligase (Homo sapiens), Q05086-1 (parent)
chain: B1 chain
partner: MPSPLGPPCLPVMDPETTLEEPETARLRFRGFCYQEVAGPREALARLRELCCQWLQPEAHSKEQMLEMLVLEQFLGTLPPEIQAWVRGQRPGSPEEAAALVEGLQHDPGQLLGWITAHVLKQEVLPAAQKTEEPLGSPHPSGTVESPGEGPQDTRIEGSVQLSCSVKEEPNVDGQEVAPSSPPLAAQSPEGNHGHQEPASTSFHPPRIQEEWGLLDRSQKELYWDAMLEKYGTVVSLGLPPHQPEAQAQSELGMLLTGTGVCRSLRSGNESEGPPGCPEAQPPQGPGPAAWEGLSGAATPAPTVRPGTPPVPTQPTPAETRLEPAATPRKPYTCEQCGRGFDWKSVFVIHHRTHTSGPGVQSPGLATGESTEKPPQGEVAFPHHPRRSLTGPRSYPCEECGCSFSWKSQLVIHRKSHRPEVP
B5: Ubiquitin-protein ligase (Homo sapiens), Q05086-1 (parent)
chain: B1 chain
partner: B2 partner
B6: Ubiquitin-protein ligase (Homo sapiens), Q05086-3 (parent)
chain: MATACKRSGEPQSDDIEASRMKRAAAKHLIERYYHQLTEGCGNEACTNEFCASCPTFLRMDNNAAAIKALELYKINAKLCDPHPSKKGASSAYLENSKGAPNNSCSEIKMNKKGARIDFKDVTYLTEEKVYEILELCREREDYSPLIRVIGRVFSSAEALVQSFRKVKQHTKEELKSLQAKDEDKDEDEKEKAACSAAAMEEDSEASSSRIGDSSQGDNNLQKLGPDDVSVDIDAIRRVYTRLLSNEKIETAFLNALVYLSPNVECDLTYHNVYSRDPNYLNLFIIVMENRNLHSPEYLEMALPLFCKAMSKLPLAAQGKLIRLWSKYNADQIRRMMETFQQLITYKVISNEFNSRNLVNDDDAIVAASKCLKMVYYANVVGGEVDTNHNEEDDEEPIPESSELTLQELLGEERRNKKGPRVDPLETELGVKTLDCRKPLIPFEEFINEPLNEVLEMDKDYTFFKVETENKFSFMTCPFILNAVTKNLGLYYDNRIRMYSERRITVLYSLVQGQQLNPYLRLKVRRDHIIDDALVRLEMIAMENPADLKKQLYVEFEGEQGVDEGGVSKEFFQLVVEEIFNPDIGMFTYDESTKLFWFNPSSFETEGQFTLIGIVLGLAIYNNCILDVHFPMVVYRKLMGKKGTFRDLGDSHPVLYQSLKDLLEYEGNVEDDMMITFQISQTDLFGNPMMYDLKENGDKIPITNENRKEFVNLYSDYILNKSVEKQFKAFRRGFHMVTNESPLKYLFRPEEIELLICGSRNLDFQALEETTEYDGGYTRDSVLIREFWEIVHSFTDEQKRLFLQFTTGTDRAPVGGLGKLKMIIAKNGPDTERLPTSHTCFNVLLLPEYSSKEKLKERLLKAITYAKGFGML
partner: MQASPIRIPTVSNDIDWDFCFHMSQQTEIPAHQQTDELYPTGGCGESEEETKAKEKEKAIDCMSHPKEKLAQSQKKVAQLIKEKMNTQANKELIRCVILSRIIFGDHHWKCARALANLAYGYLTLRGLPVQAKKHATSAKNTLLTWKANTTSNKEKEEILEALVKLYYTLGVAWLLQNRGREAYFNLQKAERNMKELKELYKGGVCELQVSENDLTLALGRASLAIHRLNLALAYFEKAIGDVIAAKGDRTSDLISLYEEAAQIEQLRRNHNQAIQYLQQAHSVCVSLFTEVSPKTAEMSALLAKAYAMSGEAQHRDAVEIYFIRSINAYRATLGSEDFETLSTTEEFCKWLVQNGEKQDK
B7: Ubiquitin-protein ligase (Homo sapiens), Q05086-3 (parent)
chain: B6 chain
partner: B2 partner
B8: Ubiquitin-protein ligase (Homo sapiens), Q05086-3 (parent)
chain: B6 chain
partner: B4 partner
B9: Ubiquitin-protein ligase (Homo sapiens), Q05086-2 (parent)
chain: B2 chain
partner: B4 partner
B10: Ubiquitin-protein ligase (Homo sapiens), Q05086-2 (parent)
chain: B2 chain
partner: B6 partner

Variants of: B1
Conditions: with mcm6_human MCM6, Q14566

effect of a mutation on the interaction	Variant
with no effect	C843A

Variants of: B2
Conditions: with cgbp1_human CGGBP1, Q9UFW8

effect of a mutation on the interaction	Variant
causing an interaction	C820A

Variants of: B3
Conditions: with ZNF250, P15622-3
ZNF250, P15622-3, sequence (P15622 other isoform, or with tags, fused parts or gaps): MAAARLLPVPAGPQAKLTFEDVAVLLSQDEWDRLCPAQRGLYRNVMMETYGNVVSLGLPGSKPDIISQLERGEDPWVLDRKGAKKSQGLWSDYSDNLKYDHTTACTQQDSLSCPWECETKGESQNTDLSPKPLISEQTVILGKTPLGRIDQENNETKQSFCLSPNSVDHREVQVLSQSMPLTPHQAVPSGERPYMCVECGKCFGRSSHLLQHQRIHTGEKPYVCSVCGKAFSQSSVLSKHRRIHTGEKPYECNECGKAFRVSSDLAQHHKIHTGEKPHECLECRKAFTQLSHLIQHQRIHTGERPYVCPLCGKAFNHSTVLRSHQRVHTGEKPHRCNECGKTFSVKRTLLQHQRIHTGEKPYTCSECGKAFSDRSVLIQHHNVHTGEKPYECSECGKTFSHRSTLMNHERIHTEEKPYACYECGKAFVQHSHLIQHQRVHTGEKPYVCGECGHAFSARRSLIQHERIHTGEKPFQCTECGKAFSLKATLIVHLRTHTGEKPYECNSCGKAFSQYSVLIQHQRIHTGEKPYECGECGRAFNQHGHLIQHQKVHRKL

effect of a mutation on the interaction	Variant
causing an interaction	C843A

Variants of: B3
Conditions: with PAX6, P26367-1
PAX6, P26367-1, sequence (P26367 whole entry): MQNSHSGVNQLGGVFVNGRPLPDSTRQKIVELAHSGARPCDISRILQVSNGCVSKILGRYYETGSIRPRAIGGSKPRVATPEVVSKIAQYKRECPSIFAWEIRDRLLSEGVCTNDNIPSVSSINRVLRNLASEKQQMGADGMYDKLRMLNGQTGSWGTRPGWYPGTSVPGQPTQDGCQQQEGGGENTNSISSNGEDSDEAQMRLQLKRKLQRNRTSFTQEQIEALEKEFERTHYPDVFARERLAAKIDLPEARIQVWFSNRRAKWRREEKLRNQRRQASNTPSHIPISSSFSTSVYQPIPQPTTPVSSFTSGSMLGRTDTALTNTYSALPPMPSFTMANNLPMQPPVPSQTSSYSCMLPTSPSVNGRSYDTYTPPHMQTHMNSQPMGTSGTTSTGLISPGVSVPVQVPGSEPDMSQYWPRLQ

effect of a mutation on the interaction	Variant
causing an interaction	C843A

Variants of: B3
Conditions: with magac_human MAGEA12, P43365
magac_human MAGEA12, P43365, sequence (P43365 whole entry): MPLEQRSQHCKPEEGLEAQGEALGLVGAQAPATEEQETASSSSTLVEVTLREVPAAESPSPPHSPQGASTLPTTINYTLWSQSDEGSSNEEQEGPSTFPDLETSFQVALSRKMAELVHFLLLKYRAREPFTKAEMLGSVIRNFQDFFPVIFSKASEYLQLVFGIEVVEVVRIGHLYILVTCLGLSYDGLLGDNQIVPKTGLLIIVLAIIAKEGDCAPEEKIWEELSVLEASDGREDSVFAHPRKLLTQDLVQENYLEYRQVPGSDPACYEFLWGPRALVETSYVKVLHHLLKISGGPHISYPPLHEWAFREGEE

effect of a mutation on the interaction	Variant
causing an interaction	C843A

Variants of: B3
Conditions: with PSMD4, P55036-1
PSMD4, P55036-1, sequence (P55036 whole entry): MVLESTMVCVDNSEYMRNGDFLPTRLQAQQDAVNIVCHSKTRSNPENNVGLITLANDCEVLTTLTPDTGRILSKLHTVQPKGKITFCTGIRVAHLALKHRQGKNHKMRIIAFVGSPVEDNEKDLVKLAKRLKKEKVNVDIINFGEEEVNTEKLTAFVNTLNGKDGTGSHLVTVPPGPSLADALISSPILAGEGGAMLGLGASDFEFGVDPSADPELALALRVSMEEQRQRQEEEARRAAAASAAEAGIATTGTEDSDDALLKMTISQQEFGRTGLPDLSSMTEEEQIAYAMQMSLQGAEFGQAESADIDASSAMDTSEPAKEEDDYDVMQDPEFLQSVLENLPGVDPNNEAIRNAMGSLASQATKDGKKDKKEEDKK

effect of a mutation on the interaction	Variant
with no effect	C843A

Variants of: B3
Conditions: with PAX5, Q02548-1
PAX5, Q02548-1, sequence (Q02548 whole entry): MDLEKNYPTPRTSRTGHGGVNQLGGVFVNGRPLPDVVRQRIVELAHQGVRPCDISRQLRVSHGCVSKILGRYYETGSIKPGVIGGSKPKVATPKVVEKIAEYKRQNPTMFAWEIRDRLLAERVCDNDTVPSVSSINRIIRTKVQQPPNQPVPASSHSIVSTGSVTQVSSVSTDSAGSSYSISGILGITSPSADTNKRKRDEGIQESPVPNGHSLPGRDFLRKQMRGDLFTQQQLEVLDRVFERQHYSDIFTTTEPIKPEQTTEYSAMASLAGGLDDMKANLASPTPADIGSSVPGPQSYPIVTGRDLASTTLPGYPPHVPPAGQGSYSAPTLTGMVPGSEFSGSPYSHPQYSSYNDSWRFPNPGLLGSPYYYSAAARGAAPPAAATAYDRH

effect of a mutation on the interaction	Variant
causing an interaction	C843A

Variants of: B3
Conditions: with PTCD3, Q96EY7-1

effect of a mutation on the interaction	Variant
with no effect	C843A

Variants of: B3
Conditions: with ubql2_human UBQLN2, Q9UHD9
ubql2_human UBQLN2, Q9UHD9, sequence (Q9UHD9 whole entry): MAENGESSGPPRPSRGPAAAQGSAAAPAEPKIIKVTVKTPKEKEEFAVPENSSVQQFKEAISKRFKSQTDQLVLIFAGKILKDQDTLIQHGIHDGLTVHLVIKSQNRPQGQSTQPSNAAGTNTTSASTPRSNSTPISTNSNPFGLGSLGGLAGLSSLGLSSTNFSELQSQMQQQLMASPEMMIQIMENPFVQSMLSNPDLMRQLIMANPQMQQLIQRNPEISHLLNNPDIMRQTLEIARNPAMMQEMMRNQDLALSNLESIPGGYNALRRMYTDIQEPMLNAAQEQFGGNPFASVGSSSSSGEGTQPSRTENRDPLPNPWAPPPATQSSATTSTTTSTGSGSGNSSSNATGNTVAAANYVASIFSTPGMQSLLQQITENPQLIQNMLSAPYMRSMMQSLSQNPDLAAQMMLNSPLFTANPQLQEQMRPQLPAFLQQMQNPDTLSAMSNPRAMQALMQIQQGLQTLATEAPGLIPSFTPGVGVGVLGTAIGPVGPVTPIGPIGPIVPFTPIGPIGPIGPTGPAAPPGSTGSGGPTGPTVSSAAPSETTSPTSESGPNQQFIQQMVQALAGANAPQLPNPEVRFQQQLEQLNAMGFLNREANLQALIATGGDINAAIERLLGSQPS

effect of a mutation on the interaction	Variant
with no effect	C843A

Variants of: B3
Conditions: with UBQLN1, Q9UMX0-1
UBQLN1, Q9UMX0-1, sequence (Q9UMX0 whole entry): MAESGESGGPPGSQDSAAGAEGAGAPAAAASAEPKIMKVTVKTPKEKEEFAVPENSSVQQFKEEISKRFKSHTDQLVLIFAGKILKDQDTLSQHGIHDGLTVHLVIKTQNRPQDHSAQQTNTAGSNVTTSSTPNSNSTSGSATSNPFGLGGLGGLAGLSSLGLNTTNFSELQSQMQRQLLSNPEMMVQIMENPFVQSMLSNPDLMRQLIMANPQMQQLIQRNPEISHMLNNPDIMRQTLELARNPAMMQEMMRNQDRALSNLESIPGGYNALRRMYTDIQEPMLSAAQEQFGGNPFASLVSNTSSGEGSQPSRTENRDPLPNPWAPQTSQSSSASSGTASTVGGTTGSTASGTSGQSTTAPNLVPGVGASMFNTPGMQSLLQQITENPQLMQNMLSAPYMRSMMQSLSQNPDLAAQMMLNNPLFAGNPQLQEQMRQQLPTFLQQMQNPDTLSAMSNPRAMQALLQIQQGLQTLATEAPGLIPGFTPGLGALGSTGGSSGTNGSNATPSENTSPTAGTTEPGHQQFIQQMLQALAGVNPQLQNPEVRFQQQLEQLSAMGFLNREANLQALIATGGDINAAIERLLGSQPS

effect of a mutation on the interaction	Variant
with no effect	C843A

Variants of: B4
Conditions: with ZNF446, Q9NWS9-2

effect of a mutation on the interaction	Variant
causing an interaction	C843A

Variants of: B5
Conditions: with cgbp1_human CGGBP1, Q9UFW8

effect of a mutation on the interaction	Variant
causing an interaction	C843A

Variants of: B6
Conditions: with TTC23L

effect of a mutation on the interaction	Variant
causing an interaction	C840A

Variants of: B7
Conditions: with cgbp1_human CGGBP1, Q9UFW8

effect of a mutation on the interaction	Variant
causing an interaction	C840A

Variants of: B8
Conditions: with ZNF446, Q9NWS9-2

effect of a mutation on the interaction	Variant
causing an interaction	C840A

Variants of: B9
Conditions: with ZNF446, Q9NWS9-2

effect of a mutation on the interaction	Variant
causing an interaction	C820A

Variants of: B10
Conditions: with TTC23L

effect of a mutation on the interaction	Variant
causing an interaction	C820A
